Molecular target: death receptor 4 (DR4) on Ramos cells (human) (UniProt O00220)
Experiment: cell-based or functional assay

B1: HuYON007 IgG1 (antibody, V domains shown)
VH: QVTLRESGPALVKPTQTLTLTCTFSGFSLSTSGMGVSWIRQPPGKALEWLAHIYWDDDKRYNPSLKSRLTISKDTSKNQVVLTMTNMDPVDTATYYCTRRGEYGNFDYWGQGTLVTVSS
VL: QTVVTQEPSFSVSPGGTVTLTCRSSSGAVTTSNFANWVQQTPGQAPRGLIGGTNNRAPGVPDRFSGSLLGNKAALTITGAQADDESDYYCALWYSNHWVFGGGTKLTVL
  viability of Ramos cells at 6.2 ng/ml antibody: 100%
  viability of Ramos cells at 111 ng/ml antibody (alamar Blue, overnight): 78.3%

— patent US20150038682A1
